Test results as given in US20060240001A1 (AGOURON PHARMACEUTICALS, published 2006).
Changes are numbered by the printed parent chain. One block for each binder: values may come before it.

What was measured:
[1] = target: T1, human P-cadherin on the surface of cells (human, UniProt P22223 108-829); assay: cell-based or functional assay
[2] = target: T1, human P-cadherin on the surface of cells; assay: epitope competition on A431 cells; competitor: biotinylated 129-1c4 IgG, DELFIA
[3] = target: T1, human P-cadherin on the surface of cells; assay: cell-based or functional assay; remark: listed apart in the source
[4] = target: T1, human P-cadherin on the surface of cells; assay: cell-based or functional assay; remark: listed apart in the source
[5] = target: T2, mouse P-cadherin/Fc fusion protein (mouse, UniProt P10287 100-647, limits assumed); assay: SPR (BIACORE 3000), mCad/Fc immobilised, scFv as analyte, 1:1 fit
T2 construct: also called mCad/Fc; not shown: Fc part of the fusion protein
T2 sequence (looked up): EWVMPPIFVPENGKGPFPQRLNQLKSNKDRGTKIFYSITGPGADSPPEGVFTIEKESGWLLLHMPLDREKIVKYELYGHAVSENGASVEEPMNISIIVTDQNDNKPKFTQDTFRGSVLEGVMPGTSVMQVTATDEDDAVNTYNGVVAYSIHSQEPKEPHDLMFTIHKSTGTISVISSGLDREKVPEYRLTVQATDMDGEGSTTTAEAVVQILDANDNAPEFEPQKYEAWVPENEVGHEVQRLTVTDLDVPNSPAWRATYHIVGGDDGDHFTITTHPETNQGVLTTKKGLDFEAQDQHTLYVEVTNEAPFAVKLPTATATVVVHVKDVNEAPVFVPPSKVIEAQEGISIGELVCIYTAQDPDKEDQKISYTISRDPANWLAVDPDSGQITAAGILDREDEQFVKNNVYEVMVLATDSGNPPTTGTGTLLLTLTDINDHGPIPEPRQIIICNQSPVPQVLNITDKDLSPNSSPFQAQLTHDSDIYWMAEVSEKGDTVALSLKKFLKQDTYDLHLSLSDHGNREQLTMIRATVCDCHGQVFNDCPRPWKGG

[6] = target: T1, human P-cadherin on the surface of cells; assay: epitope competition on A431 cells; competitor: biotinylated 129-1c4 IgG at 3x KD, DELFIA
[7] = target: T3, Recombinant human P-cadherin Fc (R&D Systems 861-PC-100) (human, UniProt P22223 108-654); assay: SPR (BIACORE 3000), hCad/Fc immobilised, scFv as analyte, 1:1 fit
T3 construct: also called recombinant human P-cadherin/Fc fusion protein; hCad/Fc; not shown: Fc part of the bought fusion protein

[8] = target: T3, Recombinant human P-cadherin Fc (R&D …); assay: ELISA on coated antigen, relative KD
[9] = target: T1, human P-cadherin on the surface of cells; assay: cell-based or functional assay; remark: listed apart in the source
[10] = target: T4, recombinant human E-cadherin (R&D Systems 648-EC-100) (human, UniProt P12830 155-707); assay: ELISA on coated E-cadherin, IgG titrated from 50 nM down to 0.64 nM
T4 construct: Bought protein
T4 sequence (looked up): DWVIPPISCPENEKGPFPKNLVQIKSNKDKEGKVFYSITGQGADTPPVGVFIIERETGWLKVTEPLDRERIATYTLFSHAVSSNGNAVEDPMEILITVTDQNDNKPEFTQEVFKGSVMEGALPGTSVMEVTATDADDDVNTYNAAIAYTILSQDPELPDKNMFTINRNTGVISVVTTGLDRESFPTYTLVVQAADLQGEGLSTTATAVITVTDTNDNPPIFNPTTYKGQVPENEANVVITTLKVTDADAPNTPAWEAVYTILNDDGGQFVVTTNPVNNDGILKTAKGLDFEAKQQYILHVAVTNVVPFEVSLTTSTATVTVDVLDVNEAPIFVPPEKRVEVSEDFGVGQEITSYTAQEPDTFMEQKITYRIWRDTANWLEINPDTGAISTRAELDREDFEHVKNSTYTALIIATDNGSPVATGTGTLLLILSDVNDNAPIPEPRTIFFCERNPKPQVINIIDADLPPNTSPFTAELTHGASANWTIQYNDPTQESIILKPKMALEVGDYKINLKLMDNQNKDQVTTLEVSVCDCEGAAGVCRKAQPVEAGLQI

[11] = target: T3, Recombinant human P-cadherin Fc (R&D …); assay: ELISA; KD on E-cadherin over KD on P-cadherin

B1: 129-1c4 (antibody, V domains shown)
VH: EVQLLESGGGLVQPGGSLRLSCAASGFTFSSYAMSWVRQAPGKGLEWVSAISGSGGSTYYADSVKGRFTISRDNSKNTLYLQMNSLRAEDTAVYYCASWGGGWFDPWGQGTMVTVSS
VL: QSALTQPASVSGSPGQSITISCTGTSNDVGAYNYVSWYQQHPGKAPKLILSEVNKRPSGVSNRFSGSKSGNTASLSISGLQAEDEADYYCSSFTSGSTFMLFGGGTKLTVL
notes: also called parent IgG
- SW480 Aggregation Assay Mean IC50 [1]: 35 nM
- IC50 [2]: 29 nM
- IC50 in the A431 adhesion assay [3]: 1000 to 3000 nM
- SW480 Spheroid Disruption Assay, Fold Increased Disruption vs Control at 5 nM [4]: 4 fold

B2: 194-b09 scFv (scFv, V domains shown)
VH: not shown
VL: B1 VL with S97L, T98P, F99W, M100V, L101V
notes: Single chain Fv in the assay
- Kd [5]: 11 nM

B3: scFv variant of 129-1c4 with VH CDR3 SEQ ID NO: 163 and VL CDR3 SEQ ID NO: 43 (scFv, V domains shown)
VH: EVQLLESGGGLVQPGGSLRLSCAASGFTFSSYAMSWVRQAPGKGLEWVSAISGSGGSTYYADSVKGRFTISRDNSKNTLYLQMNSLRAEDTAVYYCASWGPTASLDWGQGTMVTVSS
VL: B1 VL with S91T, F93Y, S95M
notes: His-tagged purified scFv; also called 163 / 43
- IC50 [6]: 2.45 nM

Results, then the binder that gave them:

- Kd [5]: 0.76 nM
- koff [5]: 0.00047 s⁻¹
- Kd [7]: 1.1 nM
- koff [7]: 0.0007 s⁻¹
B4: 196-g03 scFv (scFv, V domains shown)
VH: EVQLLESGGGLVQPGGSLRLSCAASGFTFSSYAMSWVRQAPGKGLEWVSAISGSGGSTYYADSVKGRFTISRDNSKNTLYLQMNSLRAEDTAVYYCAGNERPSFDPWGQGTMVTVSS
VL: B1 VL with S91T, F93Y, S95M
notes: Single chain Fv in the assay

- SW480 Aggregation Assay Mean IC50 [1]: 2.6 nM
- Kd [8]: 2.6 nM
- A431 Adhesion Assay Mean IC50 (nM) (n = 2) [9]: 1 nM
- binding result [10]: no binding (tested: 50 nM)
- SW480 Spheroid Disruption Assay, Fold Increased Disruption vs Control at 5 nM [4]: 14 fold
- KD(E)/KD(P) [11]: > 100
B5: g-194-g09 (antibody, V domains shown)
VH: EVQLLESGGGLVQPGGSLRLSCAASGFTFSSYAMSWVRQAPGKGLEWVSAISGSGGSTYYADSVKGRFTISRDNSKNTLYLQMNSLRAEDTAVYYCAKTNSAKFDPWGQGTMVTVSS
VL: B1 VL with I49M, L50I, S76T, F93Y, S95M
notes: Tested as IgG; also called germlined version of 194-g09

- IC50 [6]: 2.73 nM
B6: scFv variant of 129-1c4 with VH CDR3 SEQ ID NO: 207 and VL CDR3 SEQ ID NO: 291 (scFv, V domains shown)
VH: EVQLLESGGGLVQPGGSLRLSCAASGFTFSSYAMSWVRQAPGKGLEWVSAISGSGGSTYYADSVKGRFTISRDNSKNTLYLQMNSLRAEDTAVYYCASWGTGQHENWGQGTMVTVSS
VL: B1 VL with M100N
notes: His-tagged purified scFv; also called 207 / 291

- Kd [5]: 1.8 nM
- koff [5]: 0.00081 s⁻¹
- Kd [7]: 2.6 nM
- koff [7]: 0.0016 s⁻¹
B7: 194-g09 scFv (scFv, V domains shown)
VH: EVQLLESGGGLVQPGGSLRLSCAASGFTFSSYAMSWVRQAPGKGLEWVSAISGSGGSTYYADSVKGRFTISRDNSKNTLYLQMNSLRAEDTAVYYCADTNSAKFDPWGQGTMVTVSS
VL: B1 VL with Q40R, D87E, F93Y, S95M
notes: Single chain Fv in the assay
